Assay results: patent US20230158141A1 (YAFEI SHANGHAI BIOLOG MEDICINE SCIENCE AND TECHNOLOGY, published 2023)
Where a chain is given by its changes, count along the chain named. Numbers in names are those of the source.

B1: anti-CTLA-4 antibody heavy chain A61C (antibody, human IgG1, kappa, V domains shown)
VH: QVQLVESGGGVVQPGRSLRLSCAASGFTFSSYTMHWVRQAPGKGLEWVTFISYDGNNKYYCDSVKGRFTISRDNSKNTLYLQMNSLRAEDTAIYYCARTGWLGPFDYWGQGTLVTVSS
VL: not shown
B2: anti-CTLA-4 antibody heavy chain S63C (antibody, human IgG1, kappa, V domains shown)
VH: B1 VH with C61A, S63C
VL: not shown
B3: anti-CTLA-4 antibody heavy chain G55C (antibody, human IgG1, kappa, V domains shown)
VH: B1 VH with G55C, C61A
VL: not shown
B4: anti-CTLA-4 antibody heavy chain S30C (antibody, human IgG1, kappa, V domains shown)
VH: B1 VH with S30C, C61A
VL: not shown
B5: anti-CTLA-4 antibody heavy chain S31C (antibody, human IgG1, kappa, V domains shown)
VH: B1 VH with S31C, C61A
VL: not shown
B6: anti-CTLA-4 antibody heavy chain G66C (antibody, human IgG1, kappa, V domains shown)
VH: B1 VH with C61A, G66C
VL: not shown
B7: anti-CTLA-4 antibody heavy chain T33C (antibody, human IgG1, kappa, V domains shown)
VH: B1 VH with T33C, C61A
VL: not shown
B8: anti-CTLA-4 antibody heavy chain L102C (antibody, human IgG1, kappa, V domains shown)
VH: B1 VH with C61A, L102C
VL: not shown
B9: Ipilimumab L32 Tyr to Cys (antibody, V domains shown)
VH: B1 VH with C61A
VL: not shown
modifications: chain 2 pos 33 (Kabat L32): introduced Cys carrying the conjugated group of the row (R4-7, R4-8 or S47), written C
B10: Ipilimumab L54 Arg to Cys (antibody, V domains shown)
VH: B1 VH with C61A
VL: not shown
modifications: chain 2 pos 55 (Kabat L54): introduced Cys carries R4-26 (or S47, 40 kD PEG linker) on its thiol, written C
B11: anti-PD-1 antibody 1 heavy chain I51C (antibody, human IgG4 S228P, kappa, V domains shown)
VH: QVQLVQSGVEVKKPGASVKVSCKASGYTFTNYYMYWVRQAPGQGLEWMGGCNPSNGGTNFNEKFKNRVTLTTDSSTTTAYMELKSLQFDDTAVYYCARRDYRFDMGFDYWGQGTTVTVSS
VL: EIVLTQSPATLSLSPGERATLSCRASKGVSTSGYSYLHWYQQKPGQAPRLLIYLASYLESGVPARFSGSGSGTDFTLTISSLEPEDFAVYYCQHSRDLPLTFGGGTKVEIKR
B12: anti-PD-1 antibody 1 heavy chain Y35C (antibody, human IgG4 S228P, kappa, V domains shown)
VH: B11 VH with Y35C, C51I
VL: B11 VL
B13: anti-PD-1 antibody 1 heavy chain K63C (antibody, human IgG4 S228P, kappa, V domains shown)
VH: B11 VH with C51I, K63C
VL: B11 VL
B14: anti-CTLA-4 antibody light chain S95C-R4-1 (antibody, human IgG1, kappa, V domains shown)
VH: B1 VH with C61A
VL: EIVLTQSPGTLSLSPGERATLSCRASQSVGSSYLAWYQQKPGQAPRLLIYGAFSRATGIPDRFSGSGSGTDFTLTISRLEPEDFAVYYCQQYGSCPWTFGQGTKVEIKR
modifications: R4-1 on Cys 95
B15: anti-CTLA-4 antibody light chain G58C-R4-1 (antibody, human IgG1, kappa, V domains shown)
VH: B1 VH with C61A
VL: not shown
modifications: R4-1 on Cys 58
B16: anti-CTLA-4 antibody light chain S31C-R4-1 (antibody, human IgG1, kappa, V domains shown)
VH: B1 VH with C61A
VL: not shown
modifications: R4-1 on Cys 31
B17: anti-CTLA-4 antibody light chain S54C-R4-1 (antibody, human IgG1, kappa, V domains shown)
VH: B1 VH with C61A
VL: not shown
modifications: R4-1 on Cys 54
B18: anti-CTLA-4 antibody light chain G93C-R4-1 (antibody, human IgG1, kappa, V domains shown)
VH: B1 VH with C61A
VL: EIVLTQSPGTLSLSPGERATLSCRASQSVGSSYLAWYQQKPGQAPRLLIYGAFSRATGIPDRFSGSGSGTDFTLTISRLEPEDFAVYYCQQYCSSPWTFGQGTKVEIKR
modifications: R4-1 on Cys 93
B19: anti-CTLA-4 antibody light chain A35C-R4-1 (antibody, human IgG1, kappa, V domains shown)
VH: B1 VH with C61A
VL: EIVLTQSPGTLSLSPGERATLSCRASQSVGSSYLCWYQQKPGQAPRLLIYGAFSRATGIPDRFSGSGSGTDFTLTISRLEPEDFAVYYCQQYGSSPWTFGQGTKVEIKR
modifications: R4-1 on Cys 35
B20: anti-CTLA-4 antibody light chain S32C-R4-1 (antibody, human IgG1, kappa, V domains shown)
VH: B1 VH with C61A
VL: not shown
modifications: R4-1 on Cys 32
B21: anti-CTLA-4 antibody light chain T98C-R4-1 (antibody, human IgG1, kappa, V domains shown)
VH: B1 VH with C61A
VL: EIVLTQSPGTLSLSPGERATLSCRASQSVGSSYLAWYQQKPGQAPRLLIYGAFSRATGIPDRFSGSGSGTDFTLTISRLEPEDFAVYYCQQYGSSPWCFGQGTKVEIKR
modifications: R4-1 on Cys 98
B22: anti-CTLA-4 antibody light chain G30C-R4-1 (antibody, human IgG1, kappa, V domains shown)
VH: B1 VH with C61A
VL: not shown
modifications: R4-1 on Cys 30
B23: anti-PD-1 antibody 2 light chain A25C (antibody, human IgG4 S228P, kappa, V domains shown)
VH: QVQLVESGGGVVQPGRSLRLDCKASGITFSNSGMHWVRQAPGKGLEWVAVIWYDGSKRYYADSVKGRFTISRDNSKNTLFLQMNSLRAEDTAVYYCATNDDYWGQGTLVTVSS
VL: EIVLTQSPATLSLSPGERATLSCRCSQSVSSYLAWYQQKPGQAPRLLIYDASNRATGIPARFSGSGSGTDFTLTISSLEPEDFAVYYCQQSSNWPRTFGQGTKVEIKR
B24: anti-PD-1 antibody 2 light chain A60C (antibody, human IgG4 S228P, kappa, V domains shown)
VH: B23 VH
VL: B23 VL with C25A, A60C
B25: anti-PD-1 antibody 2 light chain A51C (antibody, human IgG4 S228P, kappa, V domains shown)
VH: B23 VH
VL: B23 VL with C25A, A51C
B26: anti-PD-1 antibody 2 light chain I58C (antibody, human IgG4 S228P, kappa, V domains shown)
VH: B23 VH
VL: B23 VL with C25A, I58C
B27: anti-PD-1 antibody 2 light chain A55C (antibody, human IgG4 S228P, kappa, V domains shown)
VH: B23 VH
VL: B23 VL with C25A, A55C
B28: anti-CD28 antibody heavy chain G54C-R4-1 (antibody, human IgG4, kappa, V domains shown)
VH: QVQLVQSGAEVKKPGASVKVSCKASGYTFTSYYIHWVRQAPGQGLEWIGCIYPCNVNTNYNEKFKDRATLTVDTSISTAYMELSRLRSDDTAVYFCTRSHYGLDWNFDVWGQGTTVTVSS
VL: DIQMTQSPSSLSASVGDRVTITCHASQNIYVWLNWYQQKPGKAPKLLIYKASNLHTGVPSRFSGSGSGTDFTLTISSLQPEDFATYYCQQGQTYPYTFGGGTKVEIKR
modifications: R4-1 on Cys 54
B29: anti-CD28 antibody heavy chain S31C-R4-1 (antibody, human IgG4, kappa, V domains shown)
VH: B28 VH with S31C, C54G
VL: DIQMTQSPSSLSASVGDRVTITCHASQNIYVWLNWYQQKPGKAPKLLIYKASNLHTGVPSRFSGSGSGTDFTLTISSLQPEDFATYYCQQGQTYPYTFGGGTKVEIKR
modifications: R4-1 on Cys 31
B30: anti-CD28 antibody heavy chain Y52C-R4-4 (antibody, human IgG4, kappa, V domains shown)
VH: B28 VH with Y52C, C54G
VL: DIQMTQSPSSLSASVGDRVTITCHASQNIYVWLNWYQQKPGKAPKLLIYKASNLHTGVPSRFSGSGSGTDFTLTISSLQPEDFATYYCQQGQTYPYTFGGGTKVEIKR
modifications: R4-4 on Cys 52
B31: anti-CD28 antibody heavy chain S99C-R4-1 (antibody, human IgG4, kappa, V domains shown)
VH: B28 VH with C54G, S99C
VL: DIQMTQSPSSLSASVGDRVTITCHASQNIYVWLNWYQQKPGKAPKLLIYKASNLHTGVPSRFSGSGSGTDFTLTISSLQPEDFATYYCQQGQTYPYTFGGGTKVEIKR
modifications: R4-1 on Cys 99
B32: anti-CD28 antibody heavy chain T58C-R4-1 (antibody, human IgG4, kappa, V domains shown)
VH: B28 VH with C54G, T58C
VL: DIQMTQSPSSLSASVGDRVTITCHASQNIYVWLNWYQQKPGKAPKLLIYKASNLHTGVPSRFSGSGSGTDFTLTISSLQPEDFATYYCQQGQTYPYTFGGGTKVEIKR
modifications: R4-1 on Cys 58
B33: anti-CD28 antibody heavy chain G102C-R4-1 (antibody, human IgG4, kappa, V domains shown)
VH: B28 VH with C54G, G102C
VL: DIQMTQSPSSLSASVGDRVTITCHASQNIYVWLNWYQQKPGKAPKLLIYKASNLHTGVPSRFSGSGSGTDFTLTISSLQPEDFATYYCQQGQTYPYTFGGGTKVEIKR
modifications: R4-1 on Cys 102
B34: anti-CD28 antibody heavy chain Y27C-R4-4 (antibody, human IgG4, kappa, V domains shown)
VH: B28 VH with Y27C, C54G
VL: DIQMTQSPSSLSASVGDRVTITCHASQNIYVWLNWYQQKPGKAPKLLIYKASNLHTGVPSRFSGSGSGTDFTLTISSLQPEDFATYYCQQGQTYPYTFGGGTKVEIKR
modifications: R4-4 on Cys 27
B35: anti-CD28 antibody heavy chain T30C-R4-1 (antibody, human IgG4, kappa, V domains shown)
VH: B28 VH with T30C, C54G
VL: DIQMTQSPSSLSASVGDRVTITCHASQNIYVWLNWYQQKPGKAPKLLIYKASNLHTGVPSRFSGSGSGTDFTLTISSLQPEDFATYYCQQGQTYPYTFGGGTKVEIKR
modifications: R4-1 on Cys 30
B36: anti-PD-1 antibody 1 heavy chain K65C (antibody, human IgG4 S228P, kappa, V domains shown)
VH: B11 VH with C51I, K65C
VL: B11 VL
B37: anti-PD-1 antibody 1 heavy chain Y32C (antibody, human IgG4 S228P, kappa, V domains shown)
VH: B11 VH with Y32C, C51I
VL: B11 VL
B38: anti-PD-1 antibody 2 heavy chain Y53C (antibody, human IgG4 S228P, kappa, V domains shown)
VH: B23 VH with Y53C
VL: B23 VL with C25A
B39: anti-PD-1 antibody 2 heavy chain K65C (antibody, human IgG4 S228P, kappa, V domains shown)
VH: B23 VH with K65C
VL: B23 VL with C25A
B40: anti-PD-1 antibody 2 heavy chain D62C (antibody, human IgG4 S228P, kappa, V domains shown)
VH: B23 VH with D62C
VL: B23 VL with C25A
B41: anti-PD-1 antibody 2 heavy chain K57C (antibody, human IgG4 S228P, kappa, V domains shown)
VH: B23 VH with K57C
VL: B23 VL with C25A
B42: anti-PD-1 antibody 2 heavy chain Y59C (antibody, human IgG4 S228P, kappa, V domains shown)
VH: B23 VH with Y59C
VL: B23 VL with C25A
B43: anti-PD-1 antibody 2 heavy chain Y60C (antibody, human IgG4 S228P, kappa, V domains shown)
VH: B23 VH with Y60C
VL: B23 VL with C25A

What follows are binders tested against T1, CTLA-4 (UniProt P16410 36-162, limits assumed) (assay: ELISA, OD mutant/OD WT; A=90-110%).
T1 sequence (P16410 36-162 limits assumed): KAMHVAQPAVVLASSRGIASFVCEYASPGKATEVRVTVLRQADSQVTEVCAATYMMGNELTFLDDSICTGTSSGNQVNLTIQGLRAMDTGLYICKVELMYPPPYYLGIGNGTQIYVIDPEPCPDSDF

Row | binding activity (OD after mutation/OD wild type) [%] | Binder
1 | 90 to 110 | B1
2 | 90 to 110 | B2
3 | 90 to 110 | B3
4 | 90 to 110 | B4
5 | 90 to 110 | B5
6 | 90 to 110 | B6
7 | 90 to 110 | B7
8 | 90 to 110 | B8

These binders were tested against T2, CTLA-4 (UniProt P16410 36-162, limits assumed) (assay: ELISA; S47 on the Cys).
T2 construct: also called CTLA-4 protein
T2 sequence (P16410 36-162 limits assumed): as above

Row | Activity after S47 (40 kD) blocking [%] | Binder
9 | 13 | B9
10 | 17 | B10

What follows are binders tested against T3, PD-1 (UniProt Q15116 25-167, limits assumed) (assay: ELISA, OD mutant/OD WT; B=70-90%).
T3 sequence (Q15116 25-167 limits assumed): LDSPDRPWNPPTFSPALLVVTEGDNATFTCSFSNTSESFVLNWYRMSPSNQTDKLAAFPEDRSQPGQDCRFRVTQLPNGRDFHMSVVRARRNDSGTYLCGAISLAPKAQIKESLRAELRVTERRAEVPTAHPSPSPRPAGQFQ

Row | binding activity (OD after mutation/OD wild type) [%] | Binder
11 | 70 to 90 | B11
12 | 70 to 90 | B12
13 | 70 to 90 | B13

The binders below were run against T1, CTLA-4 (assay: ELISA, conjugate vs WT antibody).

Row | binding activity (% of WT) [%] | Binder
14 | 95.4 | B14
15 | 88.1 | B15
16 | 80.9 | B16
17 | 97.7 | B17
18 | 99.1 | B18
19 | 91.5 | B19
20 | 99 | B20
21 | 91 | B21
22 | 95.3 | B22

Target: T3, PD-1
Test: ELISA, OD mutant/OD WT; B=70-90%
Remark: another data set of the same source

Row | binding activity (OD after mutation/OD wild type) [%] | Binder
23 | 70 to 90 | B23
24 | 70 to 90 | B24
25 | 70 to 90 | B25
26 | 70 to 90 | B26
27 | 70 to 90 | B27

What follows are binders tested against CD28 (UniProt P10747 19-152, limits assumed) (assay: ELISA, conjugate vs WT antibody).

Row | binding activity (% of WT) [%] | Binder
28 | 97.9 | B28
29 | 97.5 | B29
30 | 91.6 | B30
31 | 87.6 | B31
32 | 89.3 | B32
33 | 80.1 | B33
34 | 94.2 | B34
35 | 87.3 | B35

These binders were tested against T3, PD-1 (assay: ELISA, OD mutant/OD WT; ↓=less than 70%).

Row | binding activity vs wild type [%] | Binder
36 | < 70 | B36
37 | < 70 | B37
38 | < 70 | B38
39 | < 70 | B39
40 | < 70 | B40
41 | < 70 | B41
42 | < 70 | B42
43 | < 70 | B43
